Assay results published in patent publication US20150203575A1 (Genentech, published 2015).

T1: MAG expressed on cells (human, UniProt P20916 20-626)
T1 construct: Clone of the Origene human cDNA library; also called Myelin associated glycoprotein; SIGLEC4A
T1 sequence: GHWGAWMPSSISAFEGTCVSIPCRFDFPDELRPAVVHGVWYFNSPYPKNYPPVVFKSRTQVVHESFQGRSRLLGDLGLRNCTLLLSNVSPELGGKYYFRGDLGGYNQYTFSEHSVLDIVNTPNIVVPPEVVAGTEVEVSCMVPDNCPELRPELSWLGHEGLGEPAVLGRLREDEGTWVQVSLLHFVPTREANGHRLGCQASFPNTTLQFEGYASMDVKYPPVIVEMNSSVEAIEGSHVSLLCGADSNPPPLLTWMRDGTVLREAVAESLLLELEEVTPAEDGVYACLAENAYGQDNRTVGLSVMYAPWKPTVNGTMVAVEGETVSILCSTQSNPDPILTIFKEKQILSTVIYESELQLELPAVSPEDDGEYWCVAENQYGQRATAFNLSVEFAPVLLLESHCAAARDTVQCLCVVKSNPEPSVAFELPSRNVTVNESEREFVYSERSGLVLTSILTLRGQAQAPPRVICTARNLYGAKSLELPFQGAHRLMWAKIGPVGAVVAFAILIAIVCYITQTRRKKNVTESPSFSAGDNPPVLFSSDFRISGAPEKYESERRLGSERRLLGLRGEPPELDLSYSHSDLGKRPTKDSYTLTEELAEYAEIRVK

T2: IL-2Ra expressed on cells (human, UniProt P01589 22-272)
T2 construct: Clone of the Origene human cDNA library; also called Interleukin 2 receptor alpha
T2 sequence: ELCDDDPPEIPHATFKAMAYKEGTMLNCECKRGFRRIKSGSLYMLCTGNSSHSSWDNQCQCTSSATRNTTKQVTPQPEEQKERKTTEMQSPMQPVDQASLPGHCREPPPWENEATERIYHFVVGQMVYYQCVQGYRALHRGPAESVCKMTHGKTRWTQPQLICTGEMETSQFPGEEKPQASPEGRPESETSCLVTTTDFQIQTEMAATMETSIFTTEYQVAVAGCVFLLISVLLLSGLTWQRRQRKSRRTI

T3: BR3 expressed on cells (human, UniProt Q96RJ3 1-184)
T3 construct: Clone of the Origene human cDNA library
T3 sequence: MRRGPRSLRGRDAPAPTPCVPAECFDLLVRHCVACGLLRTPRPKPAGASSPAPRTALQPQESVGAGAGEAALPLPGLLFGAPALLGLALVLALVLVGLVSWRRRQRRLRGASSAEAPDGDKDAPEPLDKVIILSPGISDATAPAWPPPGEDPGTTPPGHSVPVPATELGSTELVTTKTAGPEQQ

T4: CLEC4G expressed on cells (human, UniProt Q6UXB4 1-293)
T4 construct: Clone of the Origene human cDNA library; also called C type lectin superfamily 4 member G
T4 sequence: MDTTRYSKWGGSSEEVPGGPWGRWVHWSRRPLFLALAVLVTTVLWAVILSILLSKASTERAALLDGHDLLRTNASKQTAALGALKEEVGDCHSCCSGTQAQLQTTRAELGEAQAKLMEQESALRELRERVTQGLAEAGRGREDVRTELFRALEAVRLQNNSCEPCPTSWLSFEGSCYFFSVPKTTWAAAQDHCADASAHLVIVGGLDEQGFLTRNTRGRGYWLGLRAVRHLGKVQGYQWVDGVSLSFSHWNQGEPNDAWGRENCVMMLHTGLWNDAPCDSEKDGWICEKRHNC

B1: mPILRα-Fc (Fc fusion)
chain: not shown
notes: also called mouse PILRα-Fc; WT mPILRα-Fc; not shown: Fc of mouse IgG2a (PILRα-mIgG2a, called PILRα-Fc)
B2: mPILRαR133A-Fc (Fc fusion)
chain: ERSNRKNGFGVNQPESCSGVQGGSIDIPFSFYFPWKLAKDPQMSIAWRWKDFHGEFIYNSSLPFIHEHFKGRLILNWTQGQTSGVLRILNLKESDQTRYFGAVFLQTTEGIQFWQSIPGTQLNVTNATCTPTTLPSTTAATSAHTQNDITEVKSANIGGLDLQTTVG
notes: Arg mutant of mPILRα-Fc; also called mPILRα133A-Fc; variant mPILRα (R133A); not shown: Fc of mouse IgG2a (PILRα-mIgG2a, called PILRα-Fc)

Key:
PSS8 expressed on cells [1] = biological target: T5, PSS8 expressed on cells (human, UniProt Q16651 30-343); assay: flow cytometry, transfected 293T cells, 50 µg/ml
T5 construct: Clone of the Origene human cDNA library; also called Protease serine 8; prostasin

[2] = biological target: T6, human COLEC12 expressed on cells (human, UniProt Q5KU26 1-742); assay: flow cytometry, transfected 293T cells, 50 µg/ml
T6 construct: also called hCOLEC12; C-terminal his tagged hCOLEC12

MAG expressed on cells [3] = biological target: T1, MAG expressed on cells; assay: flow cytometry, transfected 293T cells, 2 µg/ml
MAG expressed on cells [4] = biological target: T1, MAG expressed on cells; assay: flow cytometry, transfected 293T cells, 50 µg/ml
[5] = biological target: T2, IL-2Ra expressed on cells; assay: flow cytometry, transfected 293T cells
BR3 expressed on cells = biological target: T3, BR3 expressed on cells; assay: flow cytometry, transfected 293T cells
PSS8 expressed on cells [6] = biological target: T5, PSS8 expressed on cells; assay: flow cytometry, transfected 293T cells
[7] = biological target: T7, LRRTM4 expressed on cells (human, UniProt Q86VH4 31-590); assay: flow cytometry, transfected 293T cells
T7 construct: Clone of the Origene human cDNA library; also called Leucine rich repeat transmembrane neuronal 4

[8] = biological target: T4, CLEC4G expressed on cells; assay: flow cytometry, transfected 293T cells

T5 sequence (Q16651 30-343 limits assumed): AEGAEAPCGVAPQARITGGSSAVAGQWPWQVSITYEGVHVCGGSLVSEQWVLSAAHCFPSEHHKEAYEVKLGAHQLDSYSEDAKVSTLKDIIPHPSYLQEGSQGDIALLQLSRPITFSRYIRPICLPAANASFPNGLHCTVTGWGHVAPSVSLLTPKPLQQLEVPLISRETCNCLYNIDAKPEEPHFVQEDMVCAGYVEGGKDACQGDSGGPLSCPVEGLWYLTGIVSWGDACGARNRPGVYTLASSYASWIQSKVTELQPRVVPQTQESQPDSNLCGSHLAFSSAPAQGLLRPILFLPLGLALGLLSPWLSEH
T6 sequence (Q5KU26 whole entry S522P/G606S): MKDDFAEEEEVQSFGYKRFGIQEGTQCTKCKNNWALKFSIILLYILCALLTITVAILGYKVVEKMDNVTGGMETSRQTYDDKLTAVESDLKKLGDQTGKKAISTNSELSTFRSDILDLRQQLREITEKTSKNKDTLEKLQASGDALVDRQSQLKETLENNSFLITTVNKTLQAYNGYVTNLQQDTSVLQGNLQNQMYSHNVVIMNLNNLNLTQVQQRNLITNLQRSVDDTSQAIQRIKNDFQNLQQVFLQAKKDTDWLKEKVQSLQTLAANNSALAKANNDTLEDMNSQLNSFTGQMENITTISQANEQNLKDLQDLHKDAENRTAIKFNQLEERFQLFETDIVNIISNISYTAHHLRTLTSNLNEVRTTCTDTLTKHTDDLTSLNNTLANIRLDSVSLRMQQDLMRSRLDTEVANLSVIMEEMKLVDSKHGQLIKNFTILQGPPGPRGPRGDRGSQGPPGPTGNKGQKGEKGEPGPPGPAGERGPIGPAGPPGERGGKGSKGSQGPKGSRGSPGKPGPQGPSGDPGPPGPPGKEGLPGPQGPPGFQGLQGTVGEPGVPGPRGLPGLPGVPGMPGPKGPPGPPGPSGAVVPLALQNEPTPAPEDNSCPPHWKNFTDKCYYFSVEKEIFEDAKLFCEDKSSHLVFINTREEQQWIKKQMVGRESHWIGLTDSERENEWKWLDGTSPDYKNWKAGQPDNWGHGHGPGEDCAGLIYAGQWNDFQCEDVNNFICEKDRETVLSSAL
T7 sequence (Q86VH4 31-590 limits assumed): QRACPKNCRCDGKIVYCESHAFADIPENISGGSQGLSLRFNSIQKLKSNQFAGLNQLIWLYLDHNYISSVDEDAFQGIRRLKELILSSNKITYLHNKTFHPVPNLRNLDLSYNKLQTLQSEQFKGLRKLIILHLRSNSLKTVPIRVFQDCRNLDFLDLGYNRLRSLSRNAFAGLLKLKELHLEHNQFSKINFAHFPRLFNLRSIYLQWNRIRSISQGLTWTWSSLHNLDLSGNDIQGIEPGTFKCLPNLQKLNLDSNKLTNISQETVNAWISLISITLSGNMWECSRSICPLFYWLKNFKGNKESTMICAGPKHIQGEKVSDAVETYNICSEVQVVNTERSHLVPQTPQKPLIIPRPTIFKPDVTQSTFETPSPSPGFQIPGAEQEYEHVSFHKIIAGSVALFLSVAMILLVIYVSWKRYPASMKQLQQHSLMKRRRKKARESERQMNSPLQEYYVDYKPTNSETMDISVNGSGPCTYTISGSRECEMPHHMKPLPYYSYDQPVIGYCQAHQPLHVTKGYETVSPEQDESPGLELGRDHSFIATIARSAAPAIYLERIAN

Binder | % cells in lower right quadrant (PSS8 expressed on cells [1]) [%] | % cells in lower right quadrant [2] [%] | % cells in lower right quadrant (MAG expressed on cells [3]) [%] | % cells in lower right quadrant (MAG expressed on cells [4]) [%] | binding result [5] | binding result (BR3 expressed on cells) | binding result (PSS8 expressed on cells [6]) | binding result [7] | binding result [8]
B1 | 30.6 | 10.1 | 0.039 | 0.55 | – | – | – | – | –
B2 | – | – | – | – | no binding (tested: 50 µg/ml) | no binding (tested: 50 µg/ml) | no binding (tested: 50 µg/ml) | no binding (tested: 50 µg/ml) | no binding (tested: 50 µg/ml)
